Measured values: the DeepSol protein solubility set

Experiment: soluble on expression in E. coli; label from the status in PepcDB or PDB records

Soluble on expression in E. coli, soluble:
MADPNGFLNYPRNDNPYRELAERIKDFAELQVPLSTEERQKQAARCMHCDVPFCHQGIFYGGKRAVSGCPNDNHIPEWNDLIYRGLQRKAYERLILTNPFPEFTGRVCPAPCEKSCAEALNGAGVTIKDNERFLGDLGNDEGWVAEIGKAAEPTGYKIAIIGSGPAGLSAAWRLNQLGHSVTVFEKSDRLGGLLMYGIPNMKLDKKVVQKRIDLMTELGVTFVTNTEIGKTISYEDLSVNFDRIILAIGAGIPRDLNISGREAVGIRFAIDFLTETTKTVLEEGEDNISQSLKGKKVVVIGGGDTGNDCIGTAVRLGAASVSQLEITPSLPTDRLDNNPWPEWPMTLRAGYGQKEAEFVGNTDLITYQMTATAFQTNAEGQLTGLKVAKVGPDFKALEGTEQVIEADLVLLAMGFVGTDTGLLDKFGIQEIYDDYRTNNDKVLVAGDARRGPSLVIWAIREGRKTAEIVDEQLIKVATALEHHHHHH
MSITYSAISFSGFSPKSVPFAIHSVTRRQFLNPNTFYRFGFSPSLQGSSIEFSLQLNSRVVLSKERRSLPLVVRNDRPQNEDLPKQYTRREKKPFPVPIVDLRRAARERVKNNKDKPKRPLPPPKNGMVVKSLVPLAYKVYNARIRLINNLHRLMKVVRVNACGWCNEIHVGPYGHPFKSCKGPNTSQRKGLHEWTNSVIEDVIVPLEAYHLFDRLGKRIRHDERFSIPRVPAVVELCIQGGVEIPEFPAKRRRKPIIRIGKSEFVDADETELPDPEPQPPPVPLLTELPVSEITPPSSEEETVSLAEETLQAWEEMRAGAKKLMRMYRVRVCGYCPEVHVGPTGHKAQNCGAFKHQQRNGQHGWQSAVLDDLIPPRYVWHVPDVNGPPMQRELRSFYGQAPAVVEICAQAGAVVPEHYRATMRLEVGIPSSVKEAEMVV
MTVDTEKQQVVRPRNEIAAADCWDVSPLYPNREDWKADLDSFGLKTDGSPTWPELQATQYQLEDSESLLSLLTKLFSVERKLDKLYVYAHLVHDQDITNQEGVADLKSITHLHILFSEEISWIQPALIGLSEPIIAQHLSAPCLAPYRFYLEKIFRLSMHTGTPGEEKILASAFAPFEVASKAFSSLSDSEIPFGQAMDSEGNSHPLSHALASLYMQSTDRELRKTAYLAQCERYYNYRHTFANLLNGKIQAHLFYAKNKKYGSCLESALYHNNIPTTVYTNLMDIVKKNASLITKYYSLKQKALNIKDFHFYDVYAPLSQSEEKKYSYEEAVDLIYDSLSPLGTEYVDILKQGLTTEGWVDKYENLNKRSGAYSSGCYDSYPYILLNYTGTLYDVSVIAHEGGHSMHSYFSRKNQSFHDAQYPIFLAEIASTLNEMLLMDSMLKKSNSKEEKITILTRCLDTIFSTLFRQVLFASFEYEVHSAAEQGIPLTEEYLSSTYKNLQNDFYGGIITFDTLSNIEWARIPHFYYNFYVYQYATGIIAALCFAERILNKEDNALESYMNFLKSGGSDFPLEILKKSGLDMATSEPIYKAFSFIERKIQELSSLI
MAHHHHHHMMPRSENQKEEEEWELHPLFLSKIPNKKDIDKNPALSALITLINEEEEKEVFSYEPRRKNLKKKITEKGQIIYKKDRRNLYEPYQQNKNDKINYFEKKNFGGNADISKEEEVLDVEMDEEGTTVTTAEQGGDHSSQNVSNNQEATDQTSIGEVLVCLSMMNLKQ
AHHHHHHGSLGRLARWLRLYGYDTLYGIEDDNEILRIAEEEGRIILTRDVELYRQAQVRNLRAILITSNSFEEQVKQLMMERVEFSELFPENARCPKCNGVIRSAKKEEVKGKVPENVYNSYNEFYICTSCGQIYWPGRQWREMLKMDKKIKANKL
MSTTKKGDTYNEAWVKDTNGFDILMGQFAHNIENIWGFKEVVIAGPKDYVKYTDQYQTRSHINFDDGTITIETIAGTEPAAHLRRAIIKTLLMGDDPSSVDLYSDVDDITISKEPFLYGQVVDNTGQPIRWEGRASNFADYLLKNRLKSRSNGLRIIYSVTINMVPNHLDKRAHKYLGMVRQASRKYGVDESLILAIMQTESSFNPYAVSRSDALGLMQVVQHTAGKDVFRSQGKSGTPSRSFLFDPASNIDTGTAYLAMLNNVYLGGIDNPTSRRYAVITAYNGGAGSVLRVFSNDKIQAANIINTMTPGDVYQTLTTRHPSAESRRYLYKVNTAQKSYRRRLEHHHHHH
MESLQNHFLIAMPSLDDTFFERTVIYLCEHDEKGAMGLVINKPLGIEVNSLLEQMDLPTEQVSADLAMGSQVLMGGPVSQDRGFVLHTSQPYWANSTELGSGLMLTTSRDVLTAIGSKRSPDKFLVALGYAGWSKNQLEQELADNSWLTIPADHALLFDINHEDRWQQASRSLGFEAWQLSTQAGHALEHHHHHH

Soluble on expression in E. coli, not soluble:
MGSDKIHHHHHHMSAFSVEKIGLQDSQQFSKLFIDYLAQQEHIQPLYTFYPDMAGLETAIEKRSKQPINRTVLVERLKAQYKDLPVSEKVQQNIERLASEHTFTITTGHQLCLGTGPLYLILKTLSCVKLCEALKTKHADNEFVPVFWMASEDHDAAEINHFYVFGKKYTWETTQTGAVGRFTTTGISEVLETIKDIPAWLKDAYQSSVTLAEATRKVMHQLFAEYGVVVIDGDDAALKKEFTAVIEKELFEQPAVAVMNQTNRSIERHGYSIQVNPRDINLFYVKDSLRERIEKQGERFVVLHTDVSFSAGEIKKEVADHPERFSPNVVLRPLYESTILPDIAYVGGPGEIAYWLQLKEVFAVYNTFLPAIFPRMFSGVITKQQCVKLEKAHVTVAELFLSEFDLKQVVVSRSIQEEISIEAEAGKITAAFDTIASIAATVDGSLQSWAQAEKAKALKQLEDIEKKLRKAEERKHDDVIKSVLGIRDKILPNGKLQERQESVFTFLVNDAQLIEKLYQSLDPCTFNIQMCCYE
MGSDKIHHHHHHMTSPCPQILWNMTRKCNFSCHYCYFPHDNSPVSDSLPVAALLDFLRSRGGEWLVGLTGGEPFIYPYFVDICSAIAAEHRIGIDTNLSVTPVVKRFARHVPPDRVHDIYAALHIEERERRGAVDAFIRNYHTLAGRGFTVKVNYVVHPSLVQRFAADCEFFGRHGIPLTPRPFKGVYEGRRYPEGYGSTAAAIFTQHPEAGRKTVFNFHGVPCHGGHTFLRMEPDGTVLRCPGDKTVLGNVLSGTVQTESGPTPCRMHRCPCQGVEHILPDAAQQDFIEGVRAYVVGDLPAAQRAFTAAHSRAPAMTQAANNAGVAAFAAGDAQAAACCFARAAADDPVTPLYAANLKLARRAAQPSPPSGTENETPELSLAVNYQRTGN
MADPKGFLTTPREEWPRRPAGERVRDWDEVYVPGALLPIVGRQADRCMDCGVPFCHEACPLGNLIPEWNDLVSRSDWRAASERLHATNNFPEFTGRLCPAPCEAGCVLAINQPAVTIKNVECAIADTAWEEGFVPPLPPERLSGRTVAVIGSGPAGLAAAQQLTRAGHTVAVYERDDRIGGLLRYGIPAFKMEKRHLERRVGQMRAEGTRFRTSAAVGRDVDAAALRTRYDAVVIATGATAWRELTVPGRELAGVHQAMEYLPLANRVCEGDLERSPLSAAGRHVVVVGGGDTGADCLGTAVREGAASVTQLDIYARPGAERDERAEPWPTYPRLYRLSAAHEEARDLRSAPAADADARLFAASTLRFTGDERGHVRALHLVGVDTGRRPLPGSERSLPADLVLLALGFSGPDRHDGLVDGLGLDMEPRGTITRDRGFATNVPGVFAAGDAARGQSLVVWAIAEGRAVAAAVDRHLSGGSTRLPAPVGPYDRPMTALEHHHHHH
MSLSDLHTKYMGLTLRSPLVASAGPIQQKVDGVRALADAGVGAIVMYSLFEEQVRHEEARQAEIELEYMDSFAESLSFFPTVASNEGGITERYLAHLEASANAVDIPVIASLNGATNGGWVDTAKRMENAGAAGIECNIYMVPGDLEQSAEEVEDRHVEIVQAVKDAVSVPVAVKLSPFFSALGNMATRLDAAGADALVMFNRFLQPDINVETMQVEPGVWLSSPADARLPLTWIAVLSGRIGASLAASSGVESANDVVKYLLAGADVVMTTSALVRHGAGYATELQKGLESYLQRKEVDLDTLRGTLAVPNDASTAEYERNGYVAALEKAKTTYGEGHHHHHH
MGSDKIHHHHHHMMKSIILIVLDGLGDRPGSDLQNRTPLQAAFRPNLNWLASHGINGIMHPISPGIRCGSDTSHMSLLGYDPKVYYPGRGPFEALGLGMDIRPGDLAFRANFATNRDGVIVDRRAGRENKGNEELADAISLDMGEYSFRVKSGVEHRAALVVSGPDLSDMIGDSDPHREGLPPEKIRPTDPSGDRTAEVMNAYLEEARRILSDHRVNKERVKNGRLPGNELLVRSAGKVPAIPSFTEKNRMKGACVVGSPWLKGLCRLLRMDVFDVPGATGTVGSNYRGKIEKAVDLTSSHDFVLVNIKATDVAGHDGNYPLKRDVIEDIDRAMEPLKSIGDHAVICVTGDHSTPCSFKDHSGDPVPIVFYTDGVMNDGVHLFDELSSASGSLRITSYNVMDILMQLAGRSDKFGS
MGSEIDQNDTDSSTQEWYRLLVVEKSTTLSDFMTSKRTKMVSDFPEEREEAIEEIIEVISTFPMDFLQKDEVSLLLNYFINSIESSALTGGAVIRGVHHLILKSKNLPDNFEVSLIRVLFKEGNVQSWAQKERQLQYEILIWFLKYRLSFLKGLGPDFLATFMKSVSGERDPRCLVHMFSAFLEVSNNFTLGPFTEDMFETIACYFPVEFKPQKTDTITREYLAASCASCLVSSPSFAPFCFLFIDEKLNDDDCSDEEYEDVLNLLILAYNRFPAQKKNLSLIEPLIGGIRKIGLNPKNKGEMQKYVSQAFEAVIKLCTKSSETNSKALDGIVSSIVEDSEPFVLQAEMGLCKKALTLLRSAFKSLPDKNSRQIFNQVIAWILNLIQGDSVNAAGNRADIVQEGLEYLVEWIQLASEYKELSIETLAVFEQSIFESCSRAREFKPREAITAIYECASVYFESDCASDELISQCRSYIALALRTPIDTDSDFQSLLKLIRIYSSKNFDQVEIILADNETNSWNAMKVLPVLCAISCSQRWNLLKNKIVDELGSTISSSTEISYLICYVQMMEKCKKDPQLFHQQFEVFESVLYKTDCNEPVSVSYLMQSISLLLSEDDHQKFMNQTTTRYQSLEGSSLDNFNQKYRLAYLQNKNTNDLKTIANLKLPERTIRQLFFAICNREAENENNSEIPEQHHIAEIKAKLLRNAPNSLSAFEQFLTNISGSTESPFEYLLDFDSFDSNPDRCRYETASPLWRQRIFCQIVPIFKRKFEEPGSQKHVLVEMLPHLLTFAVPLDFQQLKKQFAMLLPVLIQTIGMEDVIPSHVTRTIPMFLTISEPLQPKDLGTVVKYLCSITRDNDSNMTNLEDALNGLNILARRQPPKSLHSEVPLVVTSINKILGHKKRLLRMMAADVKNNWEMVITK
MGSDKIHHHHHHMKLQDFLGKDEKWSFDAIAEDADLARQIQIVLIGLVLLEPPADGKFGPVSVIALKKFQELTKTEESGFLGAVTAKKLIETKIDDLPKPPLKLGNDIASKIVKYMIAKGYQVFTNPKEYNIVYIEGMNGDWTLNSDTPNQFNDRRIVIEVVNGIPKIVDHWEATTEPGKYYTYNPMNPKGAARIQFGQYKAWAVGTHGTAEPHEALVQVGDITVCRDFNQDFKRTGDKLDTGDNFYVNQHYGFDFPQNDIRLASAGCLVGRTREGHREFMAIVKQDRRYVANRKYTFYTTVIPGDDLLKTFPG
MGSDKIHHHHHHMPHDDHITALCFNNAESYEKPILVTASRDGHFKVWILTDDSDIYKKAIAWTCDFVGSYHKYQATNCCFSEDGSLLAVSFEEIVTIWDSQTWELKCTFCQRAGKIRHLCFGRLTCSKYLLGTTDNGILCCWNLLSCSIQWSAKLNVRVMEPDPYSDHVAAVAQSSAGSDLFVFKPSEPRPLYIQKNVSREEVQWGVFVPRDVPESFTSETHQWLNRSQFYFLTKSQSLLTFSTKSPEEKLTPTSKQLLAEESLPTTPFSFILGKHRQQQGAKLTETSENELVQLPLTENIPAITELLHTPAHVLPSASFLCSLFVNSLLLSKETKSAEEVPDDVDMEGNKESDDSDEEYDLTEKDKETNNTDLGEDAIHQLSKSEEKELRKFRKVDYSWLTAL
